Experimental data published in paper PMC10812545, “The Binding of HSPA8 and Mitochondrial ALDH2 Mediates Oxygen-Glucose Deprivation-Induced Fibroblast Senescence” (Antioxidants, 2023).
Values joined by “and” are separate entries in the source; they are usually repeats but may differ in a detail not shown here. Equal entries are not always repeated.

Target: the molecule itself
Assay: cross-linking; DSS 500 μM, 30 min at room temperature, quenched with 10 mM Tris; NIH3T3 cells (CON, OGD, siHSPA8); Western blot for ALDH2

B1: Aldehyde dehydrogenase 2 (ALDH2) (enzyme, mouse (endogenous in NIH3T3), UniProt P47738 20-519, looked up)
chain: SAAATSAVPAPNHQPEVFCNQIFINNEWHDAVSRKTFPTVNPSTGEVICQVAEGNKEDVDKAVKAARAAFQLGSPWRRMDASDRGRLLYRLADLIERDRTYLAALETLDNGKPYVISYLVDLDMVLKCLRYYAGWADKYHGKTIPIDGDFFSYTRHEPVGVCGQIIPWNFPLLMQAWKLGPALATGNVVVMKVAEQTPLTALYVANLIKEAGFPPGVVNIVPGFGPTAGAAIASHEGVDKVAFTGSTEVGHLIQVAAGSSNLKRVTLELGGKSPNIIMSDADMDWAVEQAHFALFFNQGQCCCAGSRTFVQENVYDEFVERSVARAKSRVVGNPFDSRTEQGPQVDETQFKKILGYIKSGQQEGAKLLCGGGAAADRGYFIQPTVFGDVKDGMTIAKEEIFGPVMQILKFKTIEEVVGRANDSKYGLAAAVFTKDLDKANYLSQALQAGTVWINCYDVFGAQSPFGGYKMSGSGRELGEYGLQAYTEVKTVTVKVPQKNS
notes: Aldehyde dehydrogenase 2, mitochondrial, endogenous in the mouse fibroblast line NIH3T3; Seen as dimer and tetramer after DSS cross-linking; also called mitochondrial ALDH2; mitochondrial aldehyde dehydrogenase; source: endogenous, NIH3T3 lysate
Q: B1 was tested. Which “stoichiometry N” value did it give?
A: 2 and 4
